According to the DeepSol protein solubility set:

assay: soluble on expression in E. coli; label from the status in PepcDB or PDB records

| Sequence | soluble on expression in E. coli |
| --- | --- |
| MSEPPPPHSAPVPMVKTDFFAFSGPYLPEDAHGTSSPPEKQQQTRKRGRPTALELLTTRVEELEKENSSLRTFRTAAESRCRALESKQSELFQTVEQLKVVVAKLTNECSARVTSNLPAPRLFADVLKGQSAEKKAEIIAERREAAASISLFEKKTHFAVIENLPDDGSDSQSAKDKVFLDNLIAANPSLPVHIQTFRVKTRKPVLSRPTKIRFSSEADRNSFIFSFSKTLRSLPDRPTNLPRPIRCRRDMTNDVIYPERVES | not soluble |
| MSEGWNIAVLGATGAVGEALLETLAERQFPVGEIYALARNESAGEQLRFGGKTITVQDAAEFDWTQAQLAFFVAGKEATAAWVEEATNSGCLVIDSSGLFALEPDVPLVVPEVNPFVLTDYRNRNVIAVPDSLTSQLLAALKPLIDQGGLSRISVTSLISASAQGKKAVDALAGQSAKLLNGIPIDEEDFFGRQLAFNMLPLLPDSEGSVREERRIVDEVRKILQDEGLMISASVVQAPVFYGHAQMVNFEALRPLAAEEARDAFVQGEDIVLSEENEFPTQVGDASGTPHLSVGCVRNDYGMPEQVQFWSVADNVRFGGALMAVKIAEKLVQEYLY | soluble |
| MRRAFITGVFFLSEVEFSHEYWMRHALTLAKRAWDEREVPVGAVLVHNNRVIGEGWNRPIGRHDPTAHAEIMALRQGGLVMQNYRLIDATLYVTLEPCVMCAGAMIHSRIGRVVFGARDAKTGAAGSLMDVLHHPGMNHRVEITEGILADECAALLSDFFRMRRQEIKAQKKAQSSTD | soluble |
| MKIESSCPLPVKPGMTVAQATEACYQSELGADTYVEEFEGWVDIEALEPGDPGRKIVCCVEDGICITVEMKYMELPITDTFYGVDLNCQPGEGWMTSLERVARALEDKGLTVVKRDSYILLPDVFVAIEVGETIGWFDPAYWSREEFLEEAILA | not soluble |
| MSLKSFFIGNIEIKVPVIQGGMGVGISLSGLASAVANEGGVGVISCAGLGLLYPKEKGTYTEKCISGLKEEIRKSRMKTKGIIGVNVMVALSNYADMVRTAINEKIDVIFSGAGLPLDLPSYLTTGSITKLVPIVSSSRAAKIICDKWQKNYNYLPDAIVVEGPKAGGHLGFKKEQLQDQNYALDVLIPEVVAIAASYKEQKHIPVIAAGGISTGEDIAHFMELGASGVQMGSIFVTTLECDASETFKEVYIHSKSEDVLIIESPVGMPGRAIDGEFIHSVNNGLEKPRKCSFHCIKTCDYTKSPYCIIKALYNAAKGNMKKGYAFAGSNAFLADKISSVKEVMNTLEREFFLATHKLVEGHHHHHH | not soluble |
| MSPLNFTHILTQTVDELSESESYKGLFHQHKDGEPLPSPRVLCDVIELARSILFPGYYGNSTVNSRTINYHIGVNVEKLFNLLTEQILAGLCFGNGDRCDECTEAKREEAARLAAKFISKLPHLRRVLATDVEAAYNGDPAAQSFGEVIFCYPAIKAISNYRIAHELLELGVPLIPRIITEMAHSETGIDIHPGARIGTHFTIDHGTGVVIGATSIIGNNVKLYQGVTLGARSFPLDADGKPIKGIPRHPILEDNVIVYSNATILGRITIGRDATVGGNIWVTENIPAGARIVQTKAKKLEHHHHHH | soluble |
| SLAFVCLAIGCLYTFLISTTFGCTSSSDTEIKVNPPQDFEIVDPGYLGYMYLQWQPPLSLDHFKECTVEYELKYRNIGSETWKTIITKNLHYKDGFDLNKGIEAKIHTMLPWQCTNGSEVQSSWAETTYWIS | soluble |
| TVGILWVNWDSRVRYANRAVESMLGYAPGQVVERPLIDFEPDLHMDRWLNLWKNARSSEDSAQVFETHCLRADGSLLPADVSLSFLRFR | not soluble |
| SLGELPPAPSDSKRTVFLDIDETLVHVTPYPLPFVKPDATFLLQEHRRPSDPPGVSPEYLPGVSAGAAPRAALLHVYYRPFLMPFLENLLQTNRCELVAFTAALREYADPILDGIETKLGGARGSVFAARLYRQHCARAPRSKDLVHAAPSRCLSRCVLLDNSVVSLAAQLANGLLLRPFYGDPQDRELEGVLAFLLDLLEKTGDIRESMKESGMLHKVT | soluble |
| MDILQTRYFELSNPTTGEHKFYELTLHEDGTLISRYGRIGANGQNKTQQFNSVEAMLKAADKTTAEKLNKGYQVANAGETAAQETRHQRILRNVREFYELISNGDSKLAQRCSVEFKAFIEDEDNKEEYEDQDNELINNGIREAADWELVFFVDWKDTESMLDVLDTLCSNLNIDIVFDWGCDVPEDELKVGQIMLLAHEQLQQQGFALWHWDTGHDAYLGWIARMAYQTQIASCVQALDLDAAYPNPEKLTLEHHHHHH | soluble |
| MSLYELQKVIKMDTETEDVPMFTVQNLPREDIYKTIGEMAIIVPMKNEKLHLVDGVLKAIPHKSPIIIVSNSKRKGPNRFKQEVDLVKHFCNLTHSKVIMIHQRDPGLAEAFRETGYEDILDEKGLVRSGKGEGMLIGIMLAKAIGAKYVGFVDADNYIPGAVNEYVKDYAAGFLMSESEYAMVRLHWRHKPKVSRGTLYFKKWGRVSEITNRYLNQLISEKTAFETTIMVTGNAGEHAMTMKLAEILPFSTGYSIEPYEIVYLLERFGSWENVEEFQDVFDQGIEIFQIETLNPHFHEDKGQEHVKEMVLLSLTTIYHSKLASERLKRQILEDLRMHGIIKEDEEPPKPRVMRPIKDIDIKKWMKTLESNQETLLRFDLEGHHHHHH | not soluble |
| MGSDKIHHHHHHMNYKELNKIFKETLSLRWDPVAVRMMRPGEEKPAQGIEPTVPLRHCQSIITARRGNCLYMPPRSHACPDGTGVLGLVEMSPKLRSGDLYLLFKKMPNIETARQMISSRPEFKAGSYEATLLAPLEKAAFEPDVVVFTLWPEQAMWLCCAQTYATGERQDFKTSGFNSACADLIVQTMTSGEMNISFGCYGARASSEIDDFELYLAIPTALLEPIAQALLKLSQKSIPEERKKIYLHPVMDKVGSRRAQSQGEGARVELFVDTERCMGDGLCVDFCPSGVLAMVEAGDRKVAQALHPDACSACYTCVGQCPQQAIQLSYN | not soluble |
| MGSSHHHHHHSSGLVPRGSHMGVKSLVPQELIEKIKLISPGTELRKALDDIINANFGALIFLVDDPKKYEDVIQGGFWLDTDFSAEKLYELSKMDGAIVLSEDITKIYYANVHLVPDPTIPTGETGTRHRTAERLAKQTGKVVIAVSRRRNIISLYYKNYKYVVNQVDFLISKVTQAISTLEKYKDNFNKLLSELEVLELENRVTLADVVRTLAKGFELLRIVEEIRPYIVELGEEGRLARMQLRELTEDVDDLLVLLIMDYSSEEVEEETAQNILQDFITRREPSPISISRVLGYDVQQAAQLDDVLVSARGYRLLKTVARIPLSIGYNVVRMFKTLDQISKASVEDLKKVEGIGEKRARAISESISSLKHRKTSE | soluble |
| MEYTSIADTGIEASRIGLGTWAIGGTMWGGTDEKTSIETIRAALDQGITLIDTAPAYGFGQSEEIVGKAIKEYMKRDQVILATKTALDWKNNQLFRHANRARIVEEVENSLKRLQTDYIDLYQVHWPDPLVPIEETAEVMKELYDAGKIRAIGVSNFSIEQMDTFRAVAPLHTIQPPYNLFEREMEESVLPYAKDNKITTLLYGSLCRGLLTGKMTEEYTFEGDDLRNHDPKFQKPRFKEYLSAVNQLDKLAKTRYGKSVIHLAVRWILDQPGADIALWGARKPGQLEALSEITGWTLNSEDQKDINTILENTISDPVGPEFMAPPTREEIPG | soluble |
| GSHMAPGFTISFVNKTIIVTGGNRGIGLAFTRAVAAAGANVAVIYRSAADAVEVTEKVGKEFGVKTKAYQCDVSNTDIVTKTIQQIDADLGPISGLIANAGVSVVKPATELTHEDFAFVYDVNVFGVFNTCRAVAKLWLQKQQKGSIVVTSSMSSQIINQSSLNGSLTQVFYNSSKAACSNLVKGLAAEWASAGIRVNALSPGYVNTDQTAHMDKKIRDHQASNIPLNRFAQPEEMTGQAILLLSDHATYMTGGEYFIDGGQLIW | soluble |
| MSLRRILHMTEKKKKIGFNIVKNDSTDGHGGFGVGALSLENISPVFVDVLEKTAFVDIGAMHARSTVEKGIKFLTNKDEVPNGKPFWLVWVTIERTATGAYYAGVTACEMTVDREIRRGYKSLPEHVNKMDKSMKRHIMVDHMDESSKKVLGTFLKEHNEAIWNESGEELRRALLSEEGHHHHHH | soluble |
| MSAVVITDRHRRILKVNPAFTSISGFSANEVIGKNTFDVLLSESENIDKRLTTWKQVEELGAWQGELDVLSKNKRKLSLLVRIQSVKSKRKATQYYIISYIDITKR | not soluble |
| NKFECNLVHSKVPMGKFYFRSEPNNKISFISDIRGEGKEWQGATLISQNAPWGEELYRKVESSLTVTKPSRRFVFRKGAPSLMKAIAGGSWITLVLEGKDASALSEVRIPTIQIQKALGEFNACRERLPK | not soluble |
| MMPGYQSADEFADKEKGWTGVHQWEKEMAKADEKYGPIFAKFAAMPIEEVAKDPQAVKMGGRLFASNCSICHGSDAKGAYGFPNLTDADWRWGGEPETIKTTIMAGRHAAMPAWGEVIGEEGVKNVAAFVLTQMDGRKLPEGAKADIEAGKQVFATTCVACHGPEGKGTPAMGAPDLTHPGAFIYGSSFAQLQQTIRYGRQGVMPAQQEHLGNDKVHLLAAYVYSLSHGE | not soluble |
| MFGISFSELLLVGLVALLVLGPERLPGAARTAGLWIGRLKRSFNTIKQEVEREIGADEIRRQLHNEHILSMEREAQKLLAPLTGQNPPQETPPPAAESPAPSVPTPPPTSTPAVPPADAAAPPAVAASTPPSPPSETPRNPLEHHHHHH | not soluble |
| MSLKNIEKELENLRTIFRSIGLIKFKPYFSYMGLFKDDTMFGLYKEKCLYLRKSDQYLQEIKDTIPIHFLSDHKISRQSKIFYLVPQHIIENISSYSHWITSSISEYQRLRSKIRTENQTKIRILLNMNINIERLLARVNINTVDEFKQVGETKAFVRLIQQGFEVNQLLLFKLYGALQHKYIYMLSLEEKKRLLEQADSALYDAGLRKRFTVEGHHHHHH | soluble |
| MDSSFTPIEQMLKFRASRHEDFPYQEILLTRLCMHMQSKLLENRNKMLKAQGINETLFMALITLESQENHSIQPSELSCALGSSRTNATRIADELEKRGWIERRESDNDRRCLHLQLTEKGHEFLREVLPPQHNCLHQLWSALSTTEKDQLEQITRKLLSRLDQMEQDGVVLEAMS | not soluble |
| NATNRRDTVLAAMVDAGKLTKSQAKEAASIGMKNRLADTYAGKINDYRYPSYFDAVVNEAIDTYGISEKDIVNNGY | not soluble |
| MAHHHHHHVDDDDKMYQSAIKVEPASPPYYSEKTQLYNKPHEEPSNSLMAIECRVCGDKASGFHYGVHACEGCKGFFRRTIRLKLIYDRCDLNCRIHKKSRNKCQYCRFQKCLAVGMSHNAIRFGRMPQAEKEKLLAEISSDIDQLNPESADLRALAKHLYDSYIKSFPLTKAKARAILTGKTTDKSPFVIYDMNSLMMGEDKIKFKHITPLQEQSKEVAIRIFQGCQFRSVEAVQEITEYAKSIPGFVNLDLNDQVTLLKYGVHEIIYTMLASLMNKDGVLISEGQGFMTREFLKSLRKPFGDFMEPKFEFAVKFNALELDDSDLAIFIAVIILSGDRPGLLNVKPIEDIQDNLLQALELQLKLNHPESSQLFAKLLQKMTDLRQIVTEHVQLLQVIKKTETDMSLHPLLQEIYKDLY | soluble |
| MEGNGSVDMFSEVLENQFLQAAKLVENHLDSEIQKLDQIGEDELELLKEKRLAALRKAQQQKQEWLSKGHGEYREIGSERDFFQEVKESEKVVCHFYRDTTFRCKILDRHLAILAKKHLETKFLKLNVEKAPFLCERLRIKVIPTLALLRDGKTQDYVVGFTDLGNTDDFTTETLEWRLGCSDVINYSGNLMEPPFQSQKKFGTNFTKLEKKTIRGKKYDSDSDDD | soluble |
